Target: C8/C9 (complement components C8 and C9 of normal human serum, in the assembling membrane attack complex) (human), P07357
Test: cell-based or functional assay

Chain of C8/C9 (complement components C8 and C9 of normal human serum, in the assembling membrane attack complex) (human), P07357 (P07357 31-584 limits assumed, chain 1 of 4): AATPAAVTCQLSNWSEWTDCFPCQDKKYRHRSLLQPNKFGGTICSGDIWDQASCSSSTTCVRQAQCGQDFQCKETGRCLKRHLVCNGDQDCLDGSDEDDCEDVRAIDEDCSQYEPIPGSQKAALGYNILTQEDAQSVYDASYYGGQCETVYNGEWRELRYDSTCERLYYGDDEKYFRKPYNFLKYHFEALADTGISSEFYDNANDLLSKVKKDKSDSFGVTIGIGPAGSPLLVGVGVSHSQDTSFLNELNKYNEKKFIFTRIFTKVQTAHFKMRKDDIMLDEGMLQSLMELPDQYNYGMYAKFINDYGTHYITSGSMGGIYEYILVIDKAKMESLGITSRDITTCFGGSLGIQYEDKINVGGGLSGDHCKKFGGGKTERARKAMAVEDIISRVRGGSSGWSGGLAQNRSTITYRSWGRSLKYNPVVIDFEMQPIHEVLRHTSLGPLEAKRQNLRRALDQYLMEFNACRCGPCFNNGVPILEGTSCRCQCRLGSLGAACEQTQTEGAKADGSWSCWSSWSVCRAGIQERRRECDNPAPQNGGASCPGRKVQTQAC
Chain of C8/C9 (complement components C8 and C9 of normal human serum, in the assembling membrane attack complex) (human), P07357 (P07358 55-591 limits assumed, chain 2 of 4, further chain): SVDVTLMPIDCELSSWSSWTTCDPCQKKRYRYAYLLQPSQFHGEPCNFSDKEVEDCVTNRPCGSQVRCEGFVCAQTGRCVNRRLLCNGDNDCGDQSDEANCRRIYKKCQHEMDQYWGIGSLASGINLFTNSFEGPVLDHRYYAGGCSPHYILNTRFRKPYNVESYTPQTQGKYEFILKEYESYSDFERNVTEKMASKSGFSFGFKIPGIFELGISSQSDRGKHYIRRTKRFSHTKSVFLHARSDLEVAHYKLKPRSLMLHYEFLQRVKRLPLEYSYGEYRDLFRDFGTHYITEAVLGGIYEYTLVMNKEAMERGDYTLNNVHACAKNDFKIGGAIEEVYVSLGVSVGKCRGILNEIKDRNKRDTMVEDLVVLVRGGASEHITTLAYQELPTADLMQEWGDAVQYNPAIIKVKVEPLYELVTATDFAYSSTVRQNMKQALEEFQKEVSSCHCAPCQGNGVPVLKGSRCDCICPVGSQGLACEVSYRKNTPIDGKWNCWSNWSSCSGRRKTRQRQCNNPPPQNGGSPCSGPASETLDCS
Chain of C8/C9 (complement components C8 and C9 of normal human serum, in the assembling membrane attack complex) (human), P07357 (P07360 21-202 limits assumed, chain 3 of 4, further chain): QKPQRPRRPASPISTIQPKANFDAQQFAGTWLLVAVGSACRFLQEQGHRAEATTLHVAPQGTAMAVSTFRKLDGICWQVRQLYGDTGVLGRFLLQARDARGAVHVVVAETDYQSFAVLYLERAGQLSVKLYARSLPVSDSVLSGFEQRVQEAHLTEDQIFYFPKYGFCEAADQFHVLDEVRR
Chain of C8/C9 (complement components C8 and C9 of normal human serum, in the assembling membrane attack complex) (human), P07357 (P02748 22-559 limits assumed, chain 4 of 4, further chain): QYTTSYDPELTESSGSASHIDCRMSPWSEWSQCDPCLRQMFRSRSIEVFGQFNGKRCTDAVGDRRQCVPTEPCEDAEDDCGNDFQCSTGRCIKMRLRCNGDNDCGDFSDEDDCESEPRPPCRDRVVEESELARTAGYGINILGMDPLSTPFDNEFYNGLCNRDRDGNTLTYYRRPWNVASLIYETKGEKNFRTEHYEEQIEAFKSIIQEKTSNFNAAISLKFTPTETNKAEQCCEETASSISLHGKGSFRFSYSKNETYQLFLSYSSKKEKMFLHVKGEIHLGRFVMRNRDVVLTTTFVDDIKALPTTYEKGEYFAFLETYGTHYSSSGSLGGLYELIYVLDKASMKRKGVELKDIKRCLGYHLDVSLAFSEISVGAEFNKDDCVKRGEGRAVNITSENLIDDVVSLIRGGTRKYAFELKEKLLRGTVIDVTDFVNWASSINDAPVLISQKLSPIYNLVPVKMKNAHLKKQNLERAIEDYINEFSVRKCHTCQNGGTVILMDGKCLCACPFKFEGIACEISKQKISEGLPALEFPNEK

B1: CR2-CD59 fusion protein containing CD59 T51A/S20A (protein)
chain: ISCGSPPPILNGRISYYSTPIAVGTVIRYSCSGTFRLIGEKSLLCITKDKVDGTWDKPAPKCEYFNKYSSCPEPIVPGGYKIRGSTPYRHGDSVTFACKTNFSMNGNKSVWCQANNMWGPTRLPTCVSVFPLECPALPMIHNGHHTSENVGSIAPGLSVTYSCESGYLLVGEKIINCLSSGKWSAVPPTCEEARCKSLGRFPNGKVKEPPILRVGVTANFFCDEGYRLQGPPSSRCVIAGQGVAWTKMPVCSGGGGSLQCYNCPNPTADCKTAVNCSADFDACLITKAGLQVYNKCWKFEHCNFNDVATRLRENELTYYCCKKDLCNFNEQLEN
**Q.** Which inhibition of complement-mediated lysis of sensitized CHO cells by soluble protein in normal human serum (fold of wt CR2-CD59) does the source give for B1 here?
**A.** 3
